Measurements: patent publication US20150098989A1
Non-standard residues stand in square brackets, D forms with d. Met(O) = CS(=O)CC[C@H](N)C(=O)O

Molecular target: SNARE complex (VAMP, syntaxin, SNAP-25) (UniProt P60880)
Experiment: SDS-PAGE of SNARE complex (VAMP, syntaxin, SNAP-25), image analysis; compound at 1 mM

Chain of SNARE complex (VAMP, syntaxin, SNAP-25) (P60880 whole entry, one chain of several): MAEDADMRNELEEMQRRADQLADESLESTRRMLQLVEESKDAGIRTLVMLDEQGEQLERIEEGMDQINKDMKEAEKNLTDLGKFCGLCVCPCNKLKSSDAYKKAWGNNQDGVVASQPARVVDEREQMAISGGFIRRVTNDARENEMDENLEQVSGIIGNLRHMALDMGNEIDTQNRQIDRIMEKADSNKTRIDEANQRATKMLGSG

Row | Binder | % inhibition formation SNARE complex [%]
1 | Ac-NHFLNWM-NH2 [Ac-SEQ ID NO: 15-NH2] | 50
2 | Ac-DHFLNWM-NH2 [Ac-SEQ ID NO: 34-NH2] | 14
3 | Ac-QDFLHWM-NH2 [Ac-SEQ ID NO: 2-NH2] | 37

Now from value to binder:

Row | % inhibition formation SNARE complex [%] | Binder
4 | 83 | Ac-EDLKRWM-NH2 [Ac-SEQ ID NO: 14-NH2]
5 | 59 | Ac-EHLKQWM-NH2 [Ac-SEQ ID NO: 1-NH2]
6 | 83 | Ac-DHFLDWM-NH2 [Ac-SEQ ID NO: 25-NH2]
7 | 48 | Ac-DHFQQRM-NH2 [Ac-SEQ ID NO: 24-NH2]

Molecular target: SNARE complex (VAMP, syntaxin, SNAP-25) (UniProt P60880)
Experiment: SDS-PAGE of SNARE complex (VAMP, syntaxin, SNAP-25), image analysis; compound at 5 mM

Row | Binder | % inhibition formation SNARE complex [%]
8 | Ac-NHFLNWM-NH2 [Ac-SEQ ID NO: 15-NH2] | 100
9 | Ac-DHFLNWM-NH2 [Ac-SEQ ID NO: 34-NH2] | 59
10 | Ac-QDFLHWM-NH2 [Ac-SEQ ID NO: 2-NH2] | 80

The remaining lines, values ahead:

Row | % inhibition formation SNARE complex [%] | Binder
11 | 100 | Ac-EDLKRWM-NH2 [Ac-SEQ ID NO: 14-NH2]
12 | 100 | Ac-EHLKQWM-NH2 [Ac-SEQ ID NO: 1-NH2]
13 | 100 | Ac-DHFLDWM-NH2 [Ac-SEQ ID NO: 25-NH2]
14 | 100 | Ac-DHFQQRM-NH2 [Ac-SEQ ID NO: 24-NH2]

Molecular target: SNARE complex (VAMP, syntaxin, SNAP-25 bound to GST) (UniProt P60880)
Sequence (P60880 whole entry, one chain of several): as above
Experiment: ELISA of SNARE complex formation (SNAP-25-GST, syntaxin, immobilized VAMP); compound at 0.5 mM

Row | Binder | % inhibition formation SNARE complex [%]
15 | Ac-NHFLNWM-NH2 [Ac-SEQ ID NO: 15-NH2] | 48
16 | Ac-DHFLNWM-NH2 [Ac-SEQ ID NO: 34-NH2] | 27
17 | Ac-QHLKEWM-NH2 [Ac-SEQ ID NO: 12-NH2] | 20
18 | Ac-EHLKKWM-NH2 [Ac-SEQ ID NO: 8-NH2] | 11
19 | Ac-QHLHNVM-NH2 [Ac-SEQ ID NO: 3-NH2] | 31
20 | Ac-NDLKDWM-NH2 [Ac-SEQ ID NO: 23-NH2] | 10
21 | Ac-QDFLHWM-NH2 [Ac-SEQ ID NO: 2-NH2] | 26
22 | Ac-DHLKKWM-NH2 [Ac-SEQ ID NO: 22-NH2] | 18

Continued, values first:

Row | % inhibition formation SNARE complex [%] | Binder
23 | 43 | Ac-EDLKRWM-NH2 [Ac-SEQ ID NO: 14-NH2]
24 | 33 | Ac-EHLKQWM-NH2 [Ac-SEQ ID NO: 1-NH2]
25 | 24 | Ac-EHFLQWM-NH2 [Ac-SEQ ID NO: 30-NH2]
26 | 40 | Ac-DHFLDWM-NH2 [Ac-SEQ ID NO: 25-NH2]
27 | 26 | Ac-NHLKNWM-NH2 [Ac-SEQ ID NO: 31-NH2]
28 | 9 | Ac-DHFLDW[Met(O)]-NH2 [Ac-SEQ ID NO: 56-NH2]
29 | 41 | Ac-DHFQQRM-NH2 [Ac-SEQ ID NO: 24-NH2]

Molecular target: SNARE complex (VAMP, syntaxin, SNAP-25 bound to GST) (UniProt P60880)
Experiment: ELISA of SNARE complex formation (SNAP-25-GST, syntaxin, immobilized VAMP); compound at 2.5 mM

Row | Binder | % inhibition formation SNARE complex [%]
30 | Ac-NHFLNWM-NH2 [Ac-SEQ ID NO: 15-NH2] | 42
31 | Ac-NHLKHWM-NH2 [Ac-SEQ ID NO: 32-NH2] | 19
32 | Ac-DHFLNWM-NH2 [Ac-SEQ ID NO: 34-NH2] | 85
33 | Ac-QHLKEWM-NH2 [Ac-SEQ ID NO: 12-NH2] | 71
34 | Ac-EHLKKWM-NH2 [Ac-SEQ ID NO: 8-NH2] | 44
35 | Ac-QHLHNVM-NH2 [Ac-SEQ ID NO: 3-NH2] | 64
36 | Ac-QHLKNWM-NH2 [Ac-SEQ ID NO: 27-NH2] | 14
37 | Ac-EELKRWM-NH2 [Ac-SEQ ID NO: 116-NH2] | 69
38 | Ac-NDLKDWM-NH2 [Ac-SEQ ID NO: 23-NH2] | 60
39 | Ac-QDFLHWM-NH2 [Ac-SEQ ID NO: 2-NH2] | 64
40 | Ac-DHLKKWM-NH2 [Ac-SEQ ID NO: 22-NH2] | 72

Next, values leading:

Row | % inhibition formation SNARE complex [%] | Binder
41 | 67 | Ac-EDLKRWM-NH2 [Ac-SEQ ID NO: 14-NH2]
42 | 63 | Ac-EHLKQWM-NH2 [Ac-SEQ ID NO: 1-NH2]
43 | 71 | Ac-EHFLQWM-NH2 [Ac-SEQ ID NO: 30-NH2]
44 | 20 | Ac-RHFLQWM-NH2 [Ac-SEQ ID NO: 13-NH2]
45 | 71 | Ac-DHFLDWM-NH2 [Ac-SEQ ID NO: 25-NH2]
46 | 65 | Ac-ENLKRWM-NH2 [Ac-SEQ ID NO: 117-NH2]
47 | 59 | Ac-NHLKNWM-NH2 [Ac-SEQ ID NO: 31-NH2]
48 | 55 | Ac-DHFQQRM-NH2 [Ac-SEQ ID NO: 24-NH2]
